Columns and labels:
[1] = target: T1, EBV gH/gL (gH 19-679 linked to gL 24-137 by (G4S)3) (Epstein-Barr virus (human …)); assay: SPR; conditions: both partners purified
T1 construct: also called gH/gL WT; source: 293F, transfected, purified (Ni-NTA, SEC); not shown: HIS Tag, C-terminal, kept

[2] = target: T2, EBV gH/gL on the surface of CHO-K1 effector cells (Epstein-Barr virus, UniProt P03231;P03212); assay: flow cytometry on cells; conditions: one partner purified
T2 construct: also called gH/gL and gB fusion machinery

Binder	koff [1]	kon [1]	binding result [2]
AMMO1 (antibody, V domains shown) VH: QVQLVQSGADVKKPGASVKVSCKASGYTFIHFGISWVRQAPGQGLEWMGWIDTNNGNTNYAQSLQGRVTMTTDTSTGTAYMELRSLSTDDTAVYFCARALEMGHRSGFPFDYWGQGVLVTVSP VL: SYELTQPPSVSVAPGQRATITCGGHNIGAKNVHWYQQKPGQAPVLVIQYDSDRPSGIPERFSGSNSGSTATLTISRVEAGDEADYYCQVWDSGRGHPLYVFGGGTKVTVL	8.5e-05 s⁻¹	577000 M⁻¹ s⁻¹	–
AMMO1, human gH/gL-specific neutralizing antibody (recombinant IgG1) (antibody, V domains shown) VH: QVQLVQSGADVKKPGASVKVSCKASGYTFIHFGISWVRQAPGQGLEWMGWIDTNNGNTNYAQSLQGRVTMTTDTSTGTAYMELRSLSTDDTAVYFCARALEMGHRSGFPFDYWGQGVLVTVSP VL: SYELTQPPSVSVAPGQRATITCGGHNIGAKNVHWYQQKPGQAPVLVIQYDSDRPSGIPERFSGSNSGSTATLTISRVEAGDEADYYCQVWDSGRGHPLYVFGGGTKVTVL	–	–	binds

From publication PMC8595662 (Nature Communications, 2021)
